Here are results for 4 molecules from article PMC6811625, “Protein folding while chaperone bound is dependent on weak interactions” (Nature Communications, 2019).

Where a chain is given by its changes, count along the chain named. Numbers in names are those of the source.

Sequences and labels used below:
B1: wild-type Gallus gallus Fyn SH3 domain (T85-D142) (domain or fragment)
chain: not shown
notes: 7 residues added to the N terminus of the domain; Tyrosine-protein kinase Fyn, Gallus gallus, SH3 domain, residues T85-D142; a single arginine added to the C terminus of the domain; The same protein was measured native and unfolded (diluted from 9.5 M urea); the quantity of each row says which state; Primer 1 has a BamHI site (GGA TCC, Gly-Ser) before GAMVQIS, so further residues may remain after …
B2: SpyQ100L (natural protein, E. coli, UniProt P77754 24-161, looked up)
chain: ADTTTAAPADAKPMMHHKGKFGPHQDMMFKDLNLTDAQKQQIREIMKGQRDQMKRPPLEERRAMHDIIASDTFDKVKAEAQIAKMEEQRKANMLAHMETLNKIYNILTPEQKKQFNANFEKRLTERPAAKGKMPATAE
notes: Spy of E. coli with Q100L; also called Spy variant Q100L; source: E. coli BL21 (DE3), purified (Ni-His Trap, HiTrap Q, Superdex 75); not shown: His, N-terminal, cleaved; SUMO, N-terminal, cleaved
B3: SpyH96L (natural protein, E. coli, UniProt P77754 24-161, looked up)
chain: B2 chain with H96L, L100Q
notes: Spy of E. coli with H96L; also called Spy variant H96L; source: E. coli BL21 (DE3), purified (Ni-His Trap, HiTrap Q, Superdex 75); not shown: His, N-terminal, cleaved; SUMO, N-terminal, cleaved
B4: wild-type Spy (natural protein, E. coli, UniProt P77754 24-161, looked up)
chain: B2 chain with L100Q
notes: ATP-independent periplasmic chaperone Spy of E. coli; also called SpyWT; Spy dimer; source: E. coli BL21 (DE3), purified (Ni-His Trap, HiTrap Q, Superdex 75); not shown: His, N-terminal, cleaved; SUMO, N-terminal, cleaved

Conditions in all cases: both partners purified
For the assay “SpyQ100L”, the target named is B2. The assay can be described thus: ITC; MicroCal iTC200, 25 °C; HN buffer (40 mM HEPES pH 7.5, 50 mM NaCl) with 0.83 M urea; 2.4 mM SH3 in the syringe titrated into 100 μM Spy or Spy variant in the cell; one-site model; native SH3. For orientation: Isothermal titration calorimetry measures the heat released or taken up as one component is titrated into another.

Assay [1] has as its target B4. The description is as above.
The target in the assay “SpyH96L” is B3. The assay is described as above.
In assay [2] the target is B4. The assay is described as above. The source holds these as a separate data set.
The target in assay [3] is B1. Put plainly: stopped-flow tryptophan fluorescence kinetics with global fitting; KinTek SF-300X, 25 °C; HN buffer, 0.83 M urea after mixing; 4.8 μM SH3, refolded from 9.5 M urea or native, mixed 1:10.5 with varied Spy (concentrations as dimer); global fit (KinTek Explorer) to the mechanism that allows folding while bound; k-3 fixed at 1000 s^-1.

As for B1, the results for the Kd with SpyQ100L, in the assay with wild-type Spy [1] and in the assay with SpyH96L were 107 ± 25 µM, 50 ± 6 µM and 71 ± 19 µM, respectively. The “stoichiometry N” value with wild-type Spy [2] was determined as 1.
As for B2, in assay [3], the “Kd (native SH3)” value was 17 ± 1 µM; the “Kd (unfolded SH3)” value turned out to be 0.04 ± 0.003 µM; the “k2 (association, unfolded SH3)” value turned out to be 1.71e+08 ± 8e+06 M⁻¹ s⁻¹; the “k3 (association, native SH3)” value amounted to 6e+07 ± 2e+06 M⁻¹ s⁻¹. In addition, in assay [3], the “k-2 (dissociation, unfolded SH3)” value turned out to be 6.8 ± 0.3 s⁻¹.
For B3 the same measures were 11 ± 1 µM, 0.76 ± 0.05 µM, 2.3e+07 ± 1e+06 M⁻¹ s⁻¹, 9.1e+07 ± 1e+07 M⁻¹ s⁻¹ and 17.4 ± 0.7 s⁻¹.
For B4, in assay [3], the “Kd (native SH3)” value was 83 ± 55 µM; the “Kd (unfolded SH3)” value was 2.9 ± 0.3 µM; the “k2 (association, unfolded SH3)” value turned out to be 1.4e+07 ± 1e+06 M⁻¹ s⁻¹; the “k3 (association, native SH3)” value was 1.2e+07 ± 8e+06 M⁻¹ s⁻¹. Further, in assay [3], the “k-2 (dissociation, unfolded SH3)” value worked out at 39 ± 3 s⁻¹.

The Kd is a measure of binding affinity in units of concentration. Higher therefore signals weaker binding. A word on the stoichiometry N: it is the number of molecules, sites or subunits per partner or assembly.
